Where two headings read alike, the source gives them in different places.
B1: MAb4-YTE (antibody, human IgG1, kappa)
heavy: QVQLVQSGAEVKKPGSSVKVSCKASGYAFSSYWMNWVRQAPGQGLEWIGQIYPGDDDTNYNAKFQGRVTITVDKSTTTAYMELSSLRSEDTAVYFCAGSLMVTTGAPFDYWGQGTTVTVSSASTKGPSVFPLAPSSKSTSGGTAALGCLVKDYFPEPVTVSWNSGALTSGVHTFPAVLQSSGLYSLSSVVTVPSSSLGTQTYICNVNHKPSNTKVDKRVEPKSCDKTHTCPPCPAPELLGGPSVFLFPPKPKDTLYITREPEVTCVVVDVSHEDPEVKFNWYVDGVEVHNAKTKPREEQYNSTYRVVSVLTVLHQDWLNGKEYKCKVSNKALPAPIEKTISKAKGQPREPQVYTLPPSREEMTKNQVSLTCLVKGFYPSDIAVEWESNGQPENNYKTTPPVLDSDGSFFLYSKLTVDKSRWQQGNVFSCSVMHEALHNHYTQKSLSLSPG
light: DIQMTQSPSSLSASVGDRVTITCKASQDVGIAVAWYQQKPGKAPKFLIYYASHRGWGVPDRFSGSGSGTDFTLTISSLQPEDFATYFCQQYRSYPLTFGQGTKLEIKRTVAAPSVFIFPPSDEQLKSGTASVVCLLNNFYPREAKVQWKVDNALQSGNSQESVTEQDSKDSTYSLSSTLTLSKADYEKHKVYACEVTHQGLSSPVTKSFNRGEC
notes: also called Mab-YTE
B2: MAb4 (antibody, human IgG1, kappa)
heavy: not shown
light: B1 light
notes: Full length human IgG1 kappa; also called unmodified MAb4; parental MAb4
B3: MAb4-LS (antibody, human IgG1, kappa)
heavy: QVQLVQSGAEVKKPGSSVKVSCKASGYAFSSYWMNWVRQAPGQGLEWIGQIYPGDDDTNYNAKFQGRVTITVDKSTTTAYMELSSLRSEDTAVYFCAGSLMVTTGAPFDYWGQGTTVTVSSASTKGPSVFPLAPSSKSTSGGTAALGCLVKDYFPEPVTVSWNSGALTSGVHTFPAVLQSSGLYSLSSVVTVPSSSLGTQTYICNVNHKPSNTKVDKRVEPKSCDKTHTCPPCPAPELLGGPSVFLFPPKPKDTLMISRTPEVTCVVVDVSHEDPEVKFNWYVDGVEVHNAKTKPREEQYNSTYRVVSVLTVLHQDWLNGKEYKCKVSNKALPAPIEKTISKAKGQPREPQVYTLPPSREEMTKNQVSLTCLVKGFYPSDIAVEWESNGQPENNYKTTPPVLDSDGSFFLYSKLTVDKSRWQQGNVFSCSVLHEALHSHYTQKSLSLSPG
light: B1 light
notes: Human IgG1 kappa
B4: DX-2930 (antibody)
chain 1: not shown
chain 2: DIQMTQSPSTLSASVGDRVTITCRASQSISSWLAWYQQKPGKAPKLLIYKASTLESGVPSRFSGSGSGTEFTLTISSLQPDDFATYYCQQYNTYWTFGQGTKVEIKRTVAAPSVFIFPPSDEQLKSGTASVVCLLNNFYPREAKVQWKVDNALQSGNSQESVTEQDSKDSTYSLSSTLTLSKADYEKHKVYACEVTHQGLSSPVTKSFNRGEC
B5: MAb1 (antibody, V domains shown)
VH: QVQLQQSGAELVKPGASVKISCKASGYAFSSYWMNWVKQRPGEGLEWIGQIYPGDDDTNYNGKFKGKATLTVDKSSTTAYMQLSSLTSEDSAVYFCAGSLMVTTGAPFDYWGQGTTLTVSS
VL: DIVMTQSHKFMSTSVGDRVSITCKASQDVGIAVAWYQQKPGQSPKFLIYWASTRHTGVPDRFTGSGSGTDFTLTIRNVQSEDLSDYFCQQYRSYPLTFGSGTKLELK

Experiments:
human plasma kallikrein [1] = biological target: T1, human plasma kallikrein (human, UniProt P03952 20-390; P03952 391-638); assay: SPR, pH 7.4, 37° C.
T1 construct: Active enzyme (Enzyme Research Labs is named for the immunogen); also called pkal; pKal
T1 sequence (P03952 20-390 S143N limits assumed, chain 1 of 2): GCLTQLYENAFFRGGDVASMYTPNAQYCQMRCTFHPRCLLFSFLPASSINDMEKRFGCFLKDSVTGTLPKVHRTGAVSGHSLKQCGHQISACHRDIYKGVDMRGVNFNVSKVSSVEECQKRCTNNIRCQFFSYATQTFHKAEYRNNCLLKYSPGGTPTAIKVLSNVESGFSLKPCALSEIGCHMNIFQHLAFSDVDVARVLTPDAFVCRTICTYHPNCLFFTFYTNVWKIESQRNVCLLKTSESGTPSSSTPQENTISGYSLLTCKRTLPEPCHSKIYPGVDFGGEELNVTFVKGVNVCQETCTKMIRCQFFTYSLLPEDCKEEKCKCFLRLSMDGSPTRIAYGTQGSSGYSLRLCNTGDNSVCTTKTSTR
T1 sequence (P03952 391-638 limits assumed, chain 2 of 2): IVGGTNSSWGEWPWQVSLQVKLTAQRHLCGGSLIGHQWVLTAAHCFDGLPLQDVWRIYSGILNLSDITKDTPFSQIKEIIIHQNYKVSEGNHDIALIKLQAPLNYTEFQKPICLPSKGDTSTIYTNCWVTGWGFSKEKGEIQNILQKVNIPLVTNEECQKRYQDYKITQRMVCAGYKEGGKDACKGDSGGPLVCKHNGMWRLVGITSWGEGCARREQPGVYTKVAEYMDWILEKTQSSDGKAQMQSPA

human plasma kallikrein [2] = biological target: T1, human plasma kallikrein; assay: SPR, pH 6.0, 37° C.; pH 6.0, 37° C.
human plasma kallikrein [3] = biological target: T1, human plasma kallikrein; assay: cell-based or functional assay
human prekallikrein [4] = biological target: T2, human prekallikrein (human, UniProt P03952 20-638); assay: SPR, 37 C, 50 mM HEPES, 150 mM NaCl, 0.1 mM Ca++, 1 mg/ml BSA, 0.02% tween-20, pH 6.0
T2 construct: Zymogen form
T2 sequence (P03952 20-638 limits assumed): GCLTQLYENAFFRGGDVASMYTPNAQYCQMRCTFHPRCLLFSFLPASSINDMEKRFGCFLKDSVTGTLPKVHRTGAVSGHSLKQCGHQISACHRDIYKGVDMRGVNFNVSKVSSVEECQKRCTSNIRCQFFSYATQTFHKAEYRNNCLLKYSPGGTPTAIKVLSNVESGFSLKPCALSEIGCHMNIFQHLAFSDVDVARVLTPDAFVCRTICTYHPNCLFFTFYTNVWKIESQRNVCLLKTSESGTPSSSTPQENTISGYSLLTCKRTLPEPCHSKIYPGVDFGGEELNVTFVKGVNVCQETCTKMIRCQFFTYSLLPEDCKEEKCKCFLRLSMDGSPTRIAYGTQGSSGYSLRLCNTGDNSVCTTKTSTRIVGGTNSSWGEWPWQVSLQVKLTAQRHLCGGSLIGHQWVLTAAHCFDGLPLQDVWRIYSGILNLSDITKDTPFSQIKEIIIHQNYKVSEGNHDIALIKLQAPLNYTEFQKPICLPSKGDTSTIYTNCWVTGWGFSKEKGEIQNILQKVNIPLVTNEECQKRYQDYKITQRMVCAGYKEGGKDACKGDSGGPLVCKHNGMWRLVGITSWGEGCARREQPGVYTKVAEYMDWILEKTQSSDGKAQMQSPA

human plasma kallikrein [5] = biological target: T1, human plasma kallikrein; assay: as above
[6] = biological target: T3, human FcRn (Sino Biological, Cat. No. CT009-H08H) (human, UniProt P55899 24-297; P61769 21-119); assay: SPR, Biacore T200, human FcRn on the chip, pH 6.0
T3 construct: Coupled to the Biacore chip; also called hFcRn
T3 sequence (P55899 24-297 limits assumed, chain 1 of 2): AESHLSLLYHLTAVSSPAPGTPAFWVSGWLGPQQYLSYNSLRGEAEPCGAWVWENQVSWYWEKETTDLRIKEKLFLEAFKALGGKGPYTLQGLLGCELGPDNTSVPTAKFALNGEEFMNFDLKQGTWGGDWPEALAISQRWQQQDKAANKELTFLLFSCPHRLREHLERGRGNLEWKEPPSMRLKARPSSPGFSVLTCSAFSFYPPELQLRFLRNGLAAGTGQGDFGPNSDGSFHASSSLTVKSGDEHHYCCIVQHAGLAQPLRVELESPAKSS
T3 sequence (P61769 21-119 limits assumed, chain 2 of 2): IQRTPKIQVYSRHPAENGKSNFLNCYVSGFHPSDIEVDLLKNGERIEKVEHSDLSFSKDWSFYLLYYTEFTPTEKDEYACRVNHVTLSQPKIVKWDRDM

rabbit plasma kallikrein = rabbit plasma kallikrein (rabbit); assay: cell-based or functional assay
rabbit plasma kallikrein (rabbit), sequence (chain, as listed by the source limits assumed): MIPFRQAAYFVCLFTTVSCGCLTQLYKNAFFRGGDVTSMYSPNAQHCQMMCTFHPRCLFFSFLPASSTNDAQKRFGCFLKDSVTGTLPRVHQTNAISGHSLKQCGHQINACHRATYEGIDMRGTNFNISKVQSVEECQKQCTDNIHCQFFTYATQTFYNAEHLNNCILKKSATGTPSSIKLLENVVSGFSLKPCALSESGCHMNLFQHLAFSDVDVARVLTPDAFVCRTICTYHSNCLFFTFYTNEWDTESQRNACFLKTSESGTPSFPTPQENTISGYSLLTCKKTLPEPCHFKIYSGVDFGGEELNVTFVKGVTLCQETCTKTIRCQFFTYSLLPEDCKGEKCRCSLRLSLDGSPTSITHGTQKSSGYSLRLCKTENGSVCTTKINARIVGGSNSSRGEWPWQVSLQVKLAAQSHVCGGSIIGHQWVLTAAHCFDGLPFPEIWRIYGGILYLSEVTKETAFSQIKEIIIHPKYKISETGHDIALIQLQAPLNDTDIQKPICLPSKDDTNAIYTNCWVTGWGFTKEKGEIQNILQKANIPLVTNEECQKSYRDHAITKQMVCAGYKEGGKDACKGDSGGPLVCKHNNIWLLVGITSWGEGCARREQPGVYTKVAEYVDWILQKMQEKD

[7] = biological target: cynomolgus monkey plasma kallikrein (cynomolgus monkey, UniProt P03952 20-638 (human entry), limits assumed); assay: cell-based or functional assay
cynomolgus monkey plasma kallikrein, sequence (P03952 other isoform, or with tags, fused parts or gaps limits assumed): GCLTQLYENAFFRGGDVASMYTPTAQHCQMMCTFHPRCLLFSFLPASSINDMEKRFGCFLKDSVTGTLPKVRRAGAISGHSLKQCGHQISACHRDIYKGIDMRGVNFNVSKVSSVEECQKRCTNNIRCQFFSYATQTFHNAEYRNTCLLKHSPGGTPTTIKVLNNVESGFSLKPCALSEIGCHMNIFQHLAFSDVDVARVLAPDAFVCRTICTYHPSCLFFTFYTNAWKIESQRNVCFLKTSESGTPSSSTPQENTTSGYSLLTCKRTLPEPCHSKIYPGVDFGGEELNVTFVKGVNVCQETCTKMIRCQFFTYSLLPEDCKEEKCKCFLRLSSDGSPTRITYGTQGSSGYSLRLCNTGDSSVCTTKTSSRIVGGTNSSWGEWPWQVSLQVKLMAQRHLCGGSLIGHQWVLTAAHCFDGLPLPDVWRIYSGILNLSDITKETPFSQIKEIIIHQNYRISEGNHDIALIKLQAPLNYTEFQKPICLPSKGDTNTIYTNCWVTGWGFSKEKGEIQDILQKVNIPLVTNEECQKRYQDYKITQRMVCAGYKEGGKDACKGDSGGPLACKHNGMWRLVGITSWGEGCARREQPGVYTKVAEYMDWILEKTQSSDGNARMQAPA

human plasma kallikrein [8] = biological target: T1, human plasma kallikrein; assay: cell-based or functional assay; remark: listed apart in the source
rat plasma kallikrein = rat plasma kallikrein (rat, UniProt P14272 20-638, limits assumed); assay: cell-based or functional assay
rat plasma kallikrein, sequence (P14272 20-638 limits assumed): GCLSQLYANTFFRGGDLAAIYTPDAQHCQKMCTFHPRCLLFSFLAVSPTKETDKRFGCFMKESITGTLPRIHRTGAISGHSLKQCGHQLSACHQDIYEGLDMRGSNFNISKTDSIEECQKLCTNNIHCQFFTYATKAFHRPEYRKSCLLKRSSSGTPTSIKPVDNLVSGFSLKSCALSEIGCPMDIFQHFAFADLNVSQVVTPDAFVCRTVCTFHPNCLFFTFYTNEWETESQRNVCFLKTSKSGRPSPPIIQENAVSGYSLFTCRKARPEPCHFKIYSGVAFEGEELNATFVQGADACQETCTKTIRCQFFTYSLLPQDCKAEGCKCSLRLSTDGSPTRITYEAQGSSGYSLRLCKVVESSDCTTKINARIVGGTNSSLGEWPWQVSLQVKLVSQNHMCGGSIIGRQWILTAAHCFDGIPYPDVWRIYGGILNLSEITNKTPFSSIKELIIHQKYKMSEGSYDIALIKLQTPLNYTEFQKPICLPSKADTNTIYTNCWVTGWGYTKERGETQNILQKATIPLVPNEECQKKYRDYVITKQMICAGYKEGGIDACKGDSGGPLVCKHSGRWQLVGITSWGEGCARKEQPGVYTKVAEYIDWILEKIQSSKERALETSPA

human prekallikrein [9] = biological target: T2, human prekallikrein; assay: SPR, 37 C, 50 mM HEPES, 150 mM NaCl, 1.3 mM Ca++, 1 mg/ml BSA, 0.02% tween-20, pH 7.4
human plasma kallikrein [10] = biological target: T1, human plasma kallikrein; assay: SPR, 37° C.; reference: human prekallikrein
human plasma kallikrein [11] = biological target: T1, human plasma kallikrein; assay: cell-based or functional assay; remark: listed apart in the source
[12] = biological target: T3, human FcRn (Sino Biological, Cat. No. …); assay: SPR, Biacore T200, human FcRn on the chip, pH 6.0; pH 6.0; hFcRn on the chip
human plasma kallikrein [13] = biological target: T1, human plasma kallikrein; assay: SPR, pH 7.4, 37° C.; pH 7.4, 37° C.
[14] = biological target: T3, human FcRn (Sino Biological, Cat. No. …)
human prekallikrein [15] = biological target: T2, human prekallikrein; assay: SPR, 37 C, 50 mM HEPES, 150 mM NaCl, 0.1 mM Ca++, 1 mg/ml BSA, 0.02% tween-20, pH 6.0 (this table has no pH labels; lower row taken as pH 6.0 as in the labelled table beside it)
human plasma kallikrein [16] = biological target: T1, human plasma kallikrein; assay: SPR, 37 C, 50 mM HEPES, 150 mM NaCl, 1.3 mM Ca++, 1 mg/ml BSA, 0.02% tween-20, pH 7.4 (this table has no pH labels; upper row taken as pH 7.4 as in the labelled tables beside it)
human plasma kallikrein [17] = biological target: T1, human plasma kallikrein; assay: SPR, 37 C, 50 mM HEPES, 150 mM NaCl, 0.1 mM Ca++, 1 mg/ml BSA, 0.02% tween-20, pH 6.0 (this table has no pH labels; lower row taken as pH 6.0 as in the labelled tables beside it)
human prekallikrein [18] = biological target: T2, human prekallikrein; assay: SPR, 37 C, 50 mM HEPES, 150 mM NaCl, 1.3 mM Ca++, 1 mg/ml BSA, 0.02% tween-20, pH 7.4 (this table has no pH labels; upper row taken as pH 7.4 as in the labelled table beside it)
human plasma kallikrein [19] = biological target: T1, human plasma kallikrein; assay: cell-based or functional assay; remark: listed apart in the source
[20] = biological target: trypsin, human pancrease (Cat #16-19-032000, Athens Research and Technology Inc) (human); assay: cell-based or functional assay
human plasma kallikrein [21] = biological target: T1, human plasma kallikrein; assay: cell-based or functional assay; remark: listed apart in the source
human plasma kallikrein [22] = biological target: T1, human plasma kallikrein; assay: SPR, 37° C., pH 6 against pH 7.4
human plasma kallikrein [23] = biological target: T1, human plasma kallikrein; assay: SPR, pH 6.0, 37° C.

| Binder | Kd (human plasma kallikrein [1]) [nM] | koff (human plasma kallikrein [1]) [s⁻¹] | kon (human plasma kallikrein [1]) [M⁻¹ s⁻¹] | Kd (human plasma kallikrein [2]) [nM] | IC50 (read off the curve), lower panel (human plasma kallikrein [3]) [nM] | koff (human plasma kallikrein [5]) [s⁻¹] | kon (human plasma kallikrein [5]) [M⁻¹ s⁻¹] | Kd [6] [nM] | koff [6] [s⁻¹] | kon [6] [M⁻¹ s⁻¹] | Kd (human prekallikrein [9]) [nM] | koff (human prekallikrein [9]) [s⁻¹] | kon (human prekallikrein [9]) [M⁻¹ s⁻¹] | fold higher affinity for plasma kallikrein than prekallikrein (human plasma kallikrein [10]) [fold] | IC50 (read off the curve) (human plasma kallikrein [19]) [nM] | IC50 (read off the curve), lower panel, 10 nM pKal (human plasma kallikrein [21]) [M] | other results |
| --- | --- | --- | --- | --- | --- | --- | --- | --- | --- | --- | --- | --- | --- | --- | --- | --- | --- |
| B1 | 1.1 | 7.3e-05 | 69000 | 0.9 | ~20 | 7.7e-05 | 86000 | 150 | 0.0277 | 184000 | 1300 | 0.025 | 19000 | > 1000 |  |  | IC50 (read off the curve), upper panel, 30 nM pKal, 600 nM HMWK (human plasma kallikrein [3]): ~20 nM; Kd (human prekallikrein [4]): 670 nM; koff (human prekallikrein [4]): 0.022 s⁻¹; kon (human prekallikrein [4]): 34000 M⁻¹ s⁻¹; IC50, inhibition of pKal (1 nM) enzymatic activity on PFR-AMC (rabbit plasma kallikrein): 352 pM; IC50, inhibition of pKal (1 nM) enzymatic activity on PFR-AMC [7]: 223 pM; IC50, inhibition of pKal (1 nM) enzymatic activity on PFR-AMC (human plasma kallikrein [8]): 290 pM; IC50, inhibition of pKal (1 nM) enzymatic activity on PFR-AMC (rat plasma kallikrein): 167 pM; fold higher potency than DX-2930, HMWK functional assay (human plasma kallikrein [11]): ~10 fold |
| B2 |  |  |  |  | ~20 |  |  |  |  |  |  |  |  |  |  |  | Kd [12]: 848 nM; koff [12]: 0.229 s⁻¹; kon [12]: 270000 M⁻¹ s⁻¹ |
| B3 |  |  |  | 1.2 | ~20 |  |  |  |  |  |  |  |  | > 1000 |  |  | Kd (human plasma kallikrein [13]): 2.2 nM; Kd [14]: 105 nM; koff [14]: 0.031 s⁻¹; kon [14]: 296000 M⁻¹ s⁻¹; Kd (human prekallikrein [15]): 670 nM; koff (human prekallikrein [15]): 0.023 s⁻¹; kon (human prekallikrein [15]): 34000 M⁻¹ s⁻¹; koff (human plasma kallikrein [16]): 8.6e-05 s⁻¹; kon (human plasma kallikrein [16]): 39000 M⁻¹ s⁻¹; koff (human plasma kallikrein [17]): 0.000101 s⁻¹; kon (human plasma kallikrein [17]): 83000 M⁻¹ s⁻¹; Kd (human prekallikrein [18]): 1300 nM; koff (human prekallikrein [18]): 0.024 s⁻¹; kon (human prekallikrein [18]): 19000 M⁻¹ s⁻¹ |
| B4 | 18 | 0.00056 | 31000 |  | ~30 | 0.0061 | 26000 | 193 | 0.167 | 866000 | 144000 | 0.05 | 600 | > 1000 | ~0.2 | ~3e-09 | IC50, trypsin inhibition assay (0.25 nM trypsin, PFR-AMC), Data 1 [20]: 243 nM; IC50, trypsin inhibition assay (0.25 nM trypsin, PFR-AMC), Data 2 [20]: 376 nM; fold reduction in KD at pH 6 versus pH 7.4 (human plasma kallikrein [22]): > 10 fold; Kd (human plasma kallikrein [23]): 236 nM |
| B5 |  |  |  |  |  |  |  |  |  |  |  |  |  |  | ~1 | ~8e-09 | IC50 (read off the curve), upper panel, 1 nM pKal (human plasma kallikrein [21]): ~1e-09 M |
